Data from patent US20150203577A1 (Chugai, published 2015).
Residue numbers refer to the chain shown, from its start.

T1: mouse FcγRII extracellular domain, C-terminal His tag (mouse, UniProt P08101 30-210)
T1 construct: also called mFcγRII; mFcgRII
T1 sequence: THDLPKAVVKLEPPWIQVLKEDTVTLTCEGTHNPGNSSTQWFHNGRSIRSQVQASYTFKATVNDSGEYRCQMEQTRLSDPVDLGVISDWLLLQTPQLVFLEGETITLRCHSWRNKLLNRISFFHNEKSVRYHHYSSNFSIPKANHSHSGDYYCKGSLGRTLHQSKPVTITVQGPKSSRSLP

T2: mouse FcγRIII extracellular domain, C-terminal His tag (mouse, UniProt P08508 31-215)
T2 construct: also called mFcγRIII; mFcgRIII
T2 chain: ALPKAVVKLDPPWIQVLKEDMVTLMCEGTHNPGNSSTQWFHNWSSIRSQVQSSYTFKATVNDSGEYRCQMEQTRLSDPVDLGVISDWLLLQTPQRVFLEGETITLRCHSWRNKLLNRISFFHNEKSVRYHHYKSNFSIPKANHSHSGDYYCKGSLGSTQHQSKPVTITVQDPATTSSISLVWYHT

B1: H237-MB749/MRAL-k0 (antibody, mouse IgG1, kappa)
heavy: QVQLQESGPGLVKPSETLSLTCAVSGHSISHDHAWSWVRQPPGEGLEWIGFISYSGITNYNPSLQGRVTISRDNSKNTLYLQMNSLRAEDTAVYYCARSLARTTAMDYWGEGTLVTVSSAKTTPPSVYPLAPGSAAQTNSMVTLGCLVKGYFPEPVTVTWNSGSLSSGVHTFPAVLQSDLYTLSSSVTVPSSTWPSETVTCNVAHPASSTKVDKKIVPRDCGCKPCICEPNEVELVFIFPPKPKDVLTITLTPKVTCVVVDISKDDPEVQFSWFVDDVEVHTAQTQPREELFNSTFRSVSELPIMHQDWLNGKEFKCRVNSAAFPAPIEKTISKTKGRPKAPQVYTIPPPKEQMAKDKVSLTCMITDFFPEDITVEWQWNGQPAENYKNTQPIMDTDGSYFVYSKLNVQKSNWEAGNTFTCSVLHEGLHNHHTEKSLSHSPGK
light: not shown
notes: copies: 2 + 2
B2: H237-MB786/MRAL-k0 (antibody, mouse IgG1, kappa)
heavy: B1 heavy with L291Q, A322D, K330R
light: not shown
notes: copies: 2 + 2
B3: H237-MB788/MRAL-k0 (antibody, mouse IgG1, kappa)
heavy: B1 heavy with N320D, K330R
light: not shown
notes: copies: 2 + 2
B4: H237-MB807/MRAL-k0 (antibody, mouse IgG1, kappa)
heavy: B1 heavy with N320M
light: not shown
notes: copies: 2 + 2
B5: H237-MB780/MRAL-k0 (antibody, mouse IgG1, kappa)
heavy: B1 heavy with L291Q, A323G
light: not shown
notes: copies: 2 + 2
B6: H237-MB782/MRAL-k0 (antibody, mouse IgG1, kappa)
heavy: B1 heavy with N320D
light: not shown
notes: copies: 2 + 2
B7: H237-MB756/MRAL-k0 (antibody, mouse IgG1, kappa)
heavy: B1 heavy with L291Q, S294L, K330R
light: not shown
notes: copies: 2 + 2
B8: H237-MB784/MRAL-k0 (antibody, mouse IgG1, kappa)
heavy: B1 heavy with K330R
light: not shown
notes: copies: 2 + 2
B9: H237-MB779/MRAL-k0 (antibody, mouse IgG1, kappa)
heavy: B1 heavy with L291Q, S333W
light: not shown
notes: copies: 2 + 2
B10: H237-MB759/MRAL-k0 (antibody, mouse IgG1, kappa)
heavy: B1 heavy with L291Q, N320D, K330R
light: not shown
notes: copies: 2 + 2
B11: H237-MB760/MRAL-k0 (antibody, mouse IgG1, kappa)
heavy: B1 heavy with L291Q, S294L, N320D, K330R
light: not shown
notes: copies: 2 + 2
B12: H237-MB773/MRAL-k0 (antibody, mouse IgG1, kappa)
heavy: B1 heavy with L291Q, E329Y
light: not shown
notes: copies: 2 + 2
B13: H237-MB766/MRAL-k0 (antibody, mouse IgG1, kappa)
heavy: B1 heavy with L291Q, N320M
light: not shown
notes: copies: 2 + 2
B14: H237-MB751/MRAL-k0 (antibody, mouse IgG1, kappa)
heavy: B1 heavy with L291Q, K330R
light: not shown
notes: copies: 2 + 2
B15: H237-MB787/MRAL-k0 (antibody, mouse IgG1, kappa)
heavy: B1 heavy with N320D, A322D
light: not shown
notes: copies: 2 + 2
B16: H237-MB776/MRAL-k0 (antibody, mouse IgG1, kappa)
heavy: B1 heavy with L291Q, T331Y
light: not shown
notes: copies: 2 + 2
B17: H237-MB785/MRAL-k0 (antibody, mouse IgG1, kappa)
heavy: B1 heavy with L291Q, N320D, A322D
light: not shown
notes: copies: 2 + 2
B18: H237-MB790/MRAL-k0 (antibody, mouse IgG1, kappa)
heavy: B1 heavy with L291Q, N320D, A322D, K330R
light: not shown
notes: copies: 2 + 2
B19: H237-MB771/MRAL-k0 (antibody, mouse IgG1, kappa)
heavy: B1 heavy with L291Q, P327Y
light: not shown
notes: copies: 2 + 2
B20: H237-MB789/MRAL-k0 (antibody, mouse IgG1, kappa)
heavy: B1 heavy with A322D, K330R
light: not shown
notes: copies: 2 + 2
B21: H237-MB754/MRAL-k0 (antibody, mouse IgG1, kappa)
heavy: B1 heavy with L291Q, N320D
light: not shown
notes: copies: 2 + 2
B22: H237-MB791/MRAL-k0 (antibody, mouse IgG1, kappa)
heavy: B1 heavy with N320D, A322D, K330R
light: not shown
notes: copies: 2 + 2
B23: H237-MB783/MRAL-k0 (antibody, mouse IgG1, kappa)
heavy: B1 heavy with A322D
light: not shown
notes: copies: 2 + 2
B24: H237-MB770/MRAL-k0 (antibody, mouse IgG1, kappa)
heavy: B1 heavy with L291Q, P327F
light: not shown
notes: copies: 2 + 2
B25: H237-MB761/MRAL-k0 (antibody, mouse IgG1, kappa)
heavy: B1 heavy with L291Q, S294M, N320D, K330R
light: not shown
notes: copies: 2 + 2

What follows are binders tested against T1, mouse FcγRII extracellular domain, … (assay: SPR (Biacore T200), antibody captured on Protein L, mFcγR analyte).
Procedure: (§1) Each altered antibody was analyzed for its interaction with each Fcγ receptor prepared above using Biacore T100 (GE Healthcare Japan Corp.), Biacore T200 (GE Healthcare Japan Corp.), Biacore A100, or Biacore 4000. The running buffer used was HBS-EP+ (GE Healthcare Japan Corp.). The assay temperature was set to 25° C. The sensor chips used were chips prepared by immobilizing Protein L (ACTIGEN or BioVision) onto Series S Sensor Chip CM5 (GE Healthcare Japan Corp.) or Series S Sensor Chip CM4 (GE Healthcare Japan Corp.) by the amine coupling method.
(§2) In order to calculate the KD value of each altered antibody for FcγR, kinetic analysis was conducted according to the following method: first, the antibody of interest was captured onto any of these chips and allowed to interact with mFcγR diluted with a running buffer. For the obtained sensorgram, the assay results were globally fit into the 1:1 Langmuir binding model using Biacore Evaluation Software to calculate an association rate constant ka (L/mol/s) and a dissociation rate constant kd (1/s). From these values, the dissociation constant KD (mol/L) was calculated.

| Binder | Kd [nM] | relative mFcγRII-binding activity (mIgG1 = 1) |
| --- | --- | --- |
| B1 | 8.3 | 25.3 fold vs H237-mIgG1/MRAL-k0 |
| B2 | 7.73 | 27.2 fold vs H237-mIgG1/MRAL-k0 |
| B3 | 9.38 | 22.4 fold vs H237-mIgG1/MRAL-k0 |
| B4 | 9.58 | 21.9 fold vs H237-mIgG1/MRAL-k0 |
| B5 | 10.4 | 20.2 fold vs H237-mIgG1/MRAL-k0 |
| B6 | 9.88 | 21.3 fold vs H237-mIgG1/MRAL-k0 |
| B7 | 19.8 | 10.6 fold vs H237-mIgG1/MRAL-k0 |
| B8 | 14.3 | 14.7 fold vs H237-mIgG1/MRAL-k0 |
| B9 | 21 | 10 fold vs H237-mIgG1/MRAL-k0 |
| B10 | 6.21 | 33.8 fold vs H237-mIgG1/MRAL-k0 |
| B11 | 14.9 | 14.1 fold vs H237-mIgG1/MRAL-k0 |
| B12 | 16.5 | 12.7 fold vs H237-mIgG1/MRAL-k0 |
| B13 | 15 | 14 fold vs H237-mIgG1/MRAL-k0 |
| B14 | 8.25 | 25.4 fold vs H237-mIgG1/MRAL-k0 |
| B15 | 5.45 | 38.5 fold vs H237-mIgG1/MRAL-k0 |
| B16 | 18.6 | 11.3 fold vs H237-mIgG1/MRAL-k0 |
| B17 | 8.43 | 24.9 fold vs H237-mIgG1/MRAL-k0 |
| B18 | 6.28 | 33.5 fold vs H237-mIgG1/MRAL-k0 |
| B19 | 15.2 | 13.8 fold vs H237-mIgG1/MRAL-k0 |
| B20 | 6.8 | 30.9 fold vs H237-mIgG1/MRAL-k0 |
| B21 | 10 | 21 fold vs H237-mIgG1/MRAL-k0 |
| B22 | 5.23 | 40.1 fold vs H237-mIgG1/MRAL-k0 |
| B23 | 6.85 | 30.6 fold vs H237-mIgG1/MRAL-k0 |
| B24 | 15.7 | 13.3 fold vs H237-mIgG1/MRAL-k0 |
| B25 | 15.7 | 13.4 fold vs H237-mIgG1/MRAL-k0 |

Target: T2, mouse FcγRIII extracellular domain, …
Assay: as above
Procedure: as §1, §2

| Binder | Kd [nM] | relative mFcγRIII-binding activity (mIgG1 = 1) |
| --- | --- | --- |
| B1 | 740 | 0.4 fold vs H237-mIgG1/MRAL-k0 |
| B2 | 493 | 0.6 fold vs H237-mIgG1/MRAL-k0 |
| B3 | 475 | 0.6 fold vs H237-mIgG1/MRAL-k0 |
| B4 | 579 | 0.5 fold vs H237-mIgG1/MRAL-k0 |
| B5 | 716 | 0.4 fold vs H237-mIgG1/MRAL-k0 |
| B6 | 567 | 0.5 fold vs H237-mIgG1/MRAL-k0 |
| B7 | 1330 | 0.2 fold vs H237-mIgG1/MRAL-k0 |
| B8 | 734 | 0.4 fold vs H237-mIgG1/MRAL-k0 |
| B9 | 1610 | 0.2 fold vs H237-mIgG1/MRAL-k0 |
| B10 | 646 | 0.4 fold vs H237-mIgG1/MRAL-k0 |
| B11 | 1020 | 0.3 fold vs H237-mIgG1/MRAL-k0 |
| B12 | 1310 | 0.2 fold vs H237-mIgG1/MRAL-k0 |
| B13 | 1060 | 0.3 fold vs H237-mIgG1/MRAL-k0 |
| B14 | 890 | 0.3 fold vs H237-mIgG1/MRAL-k0 |
| B15 | 295 | 1 fold vs H237-mIgG1/MRAL-k0 |
| B16 | 1430 | 0.2 fold vs H237-mIgG1/MRAL-k0 |
| B17 | 577 | 0.5 fold vs H237-mIgG1/MRAL-k0 |
| B18 | 402 | 0.7 fold vs H237-mIgG1/MRAL-k0 |
| B19 | 1070 | 0.3 fold vs H237-mIgG1/MRAL-k0 |
| B20 | 343 | 0.8 fold vs H237-mIgG1/MRAL-k0 |
| B21 | 1130 | 0.2 fold vs H237-mIgG1/MRAL-k0 |
| B22 | 256 | 1.1 fold vs H237-mIgG1/MRAL-k0 |
| B23 | 378 | 0.7 fold vs H237-mIgG1/MRAL-k0 |
| B24 | 1170 | 0.2 fold vs H237-mIgG1/MRAL-k0 |
| B25 | 1570 | 0.2 fold vs H237-mIgG1/MRAL-k0 |
